Data reported in article PMC2805098.
Changes are numbered by the printed parent chain. Names may count otherwise.

B1: Phe223Leu MTHFR (Escherichia coli K-12; F223L) (protein)
chain: MSFFHASQRDALNQSLAEVQGQINVSFEFFPPRTSEMEQTLWNSIDRLSSLKPKFVSVTYGANSGERDRTHSIIKGIKDRTGLEAAPHLTCIDATPDELRTIARDYWNNGIRHIVALRGDLPPGSGKPEMYASDLVTLLKEVADFDISVAAYPEVHPEAKSAQADLLNLKRKVDAGANRAITQFFFDVESYLRFRDRCVSAGIDVEIIPGILPVSNFKQAKKLADMTNVRIPAWMAQMFDGLDDDAETRKLVGANIAMDMVKILSREGVKDFHFYTLNRAEMSYAICHTLGVRPGL
B2: Phe223Ala MTHFR (Escherichia coli K-12; F223A) (protein)
chain: B1 chain with L223A

How the values were obtained:
[1] = substrate: Nc1nc2c(c(=O)[nH]1)N1CN(c3ccc(C(=O)N[C@@H](CCC(=O)O)C(=O)O)cc3)C[C@H]1CN2; test: NADH-CH2-H4folate oxidoreductase assay, steady-state; assay type: biochemical, Escherichia coli; settings: other: 1000 μM NADH, fit to eq 6, anaerobic, 25 °C, pH 7.2
[2] = substrate: Nc1nc2c(c(=O)[nH]1)N1CN(c3ccc(C(=O)N[C@@H](CCC(=O)O)C(=O)O)cc3)C[C@H]1CN2; test: purified protein, by the assay type; settings: other: 500 μM NADH, anaerobic, 25 °C, pH 7.2

| Protein | Km [1] | Km [2] |
| --- | --- | --- |
| B1 | 8 ± 2 µM |  |
| B2 |  | 93 ± 16 µM |
